Experimental data published in patent US8822171.

Tested on: recombinant human tau, largest isoform (2N4R)

Substance	New sites identified in recombinant tau (phosphorylated residues, numbered on 441-residue human tau)	in vitro phosphorylation of recombinant tau, sites identified by LC/MS/MS
casein kinase 2 (CK2)	(52/56), 199, 386, 400, (412/413/414/416, 1 site)	CK2 found 5 new sites making a total of 8 in all.
cyclic AMP-dependent protein kinase (PKA)	210, (217/220), 258, 352, (412/413)	PKA found 5 new sites making a total of 24 in all.
glycogen synthase kinase 3β (GSK-3β)	149, 220, 237, 241, 245, 258, 285, 289, 305, 352, 373, (409/412/413/414/416, 2 sites of which 1 or 2 are new)	GSK-3 found 12 new sites making a total of 38 in all.
